# ± gives the standard deviation of the averaged measurements.
# B1: library; a variant is named by its letters at N, in order (parent)
# chain: GCUGUCACCGGAAUACCAGCAUCGUCUUGAUGCCCUUGGAAGUCCGGUCUGAUGAGUCCNNNNNGGACGAAACAGC
# Experiments:
# theophylline [1] = variants of: B1; test: FACS-Seq fitted mean relative fluorescence mCherry/BFP without ligand (log10 relative fluorescence); higher = higher reporter protein expression; conditions: HEK293T, ligand present: no
# Procedure, shortened: (§1)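 To measure fluorescence, a normal distribution was fitted to read counts across sorted bins. The reporter libraries were HEK293T cells transduced by lentivirus with mCherry under ribozyme-switch control and an EF1α-BFP marker, enriched and then kept with or without ligand for 48 h. Sorting used 6 mCherry/BFP bins, and bin genomic DNA was PCR-amplified and sequenced on MiSeq. Fitted means of log10(mCherry/BFP) were scaled to five spiked-in control ribozymes.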
# theophylline [2] = variants of: B1; test: normalized RNA/DNA level with ligand (relative to sTRSVctl = 100) (log10 (% of sTRSVctl)); higher = less ribozyme self-cleavage, higher mRNA level; conditions: ligand concentration (+) RNA-Seq: 5 mM, HEK293T, reporter: mCherry (pCS4076), ligand present: yes
# Procedure, shortened: (§2)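 RNA level was computed as RNA reads over DNA reads divided by a spiked-in non-cleaving sequence or by the top sequences, then scaled and log-transformed. Scaling was ×100 with log10, the top group was 25 sequences, and the threshold was ≥100 DNA reads. The reads came from HEK293T cells transfected at 4 µg per 6-well well with ribozyme switch library plasmids (mCherry, or eGFP in some ligand experiments). Total RNA was extracted with EDTA 72 h after transfection, with any ligand added 1 h before it.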
# theophylline [3] = variants of: B1; test: normalized RNA/DNA level without ligand (relative to sTRSVctl = 100) (log10 (% of sTRSVctl)); higher = less ribozyme self-cleavage, higher mRNA level; conditions: HEK293T, reporter: mCherry (pCS4076), ligand present: no
# Procedure, shortened: as §2
# theophylline [4] = variants of: B1; test: FACS-Seq fitted mean relative fluorescence mCherry/BFP with ligand (log10 relative fluorescence); ligand concentration (+) FACS-Seq: 1 mM; higher = higher reporter protein expression; conditions: HEK293T, ligand present: yes
# Procedure, shortened: as §1
Variant,FACS-Seq fitted mean (log10) (theophylline [1]),normalized RNA/DNA level with ligand (log10) (theophylline [2]),normalized RNA/DNA level without ligand (log10) (theophylline [3]),FACS-Seq fitted mean (log10) (theophylline [4])
AACUA,0.84 ± 0.078,2.01 ± 0.045,1.77 ± 0.053,1 ± 0.015
UUGCC,0.794 ± 0.064,1.99 ± 0.067,1.95 ± 0.021,0.78 ± 0.06
UUGCG,1.18 ± 0.2,1.95 ± 0.094,1.82 ± 0.08,1.12 ± 0.074
UUGCU,0.987 ± 0.11,1.94 ± 0.083,1.91 ± 0.03,0.922 ± 0.042
ACAAC,0.304 ± 0.051,1.97 ± 0.051,1.86 ± 0.038,0.206 ± 0.062
GUAAA,0.745 ± 0.13,1.982 ± 0.016,1.7 ± 0.045,0.936 ± 0.11
GCGAU,0.428 ± 0.072,1.96 ± 0.025,1.7 ± 0.18,0.549 ± 0.1
CUAUA,0.141 ± 0.018,1.972 ± 0.0076,1.61 ± 0.08,0.384 ± 0.024
AUGUG,0.254 ± 0.065,1.96 ± 0.097,1.87 ± 0.029,0.295 ± 0.11
UGACA,0.298 ± 0.03,1.93 ± 0.051,1.52 ± 0.048,0.527 ± 0.05
AUUAG,0.738 ± 0.021,2.049 ± 0.0068,1.9 ± 0.094,0.738 ± 0.013
CCUAC,0.87 ± 0.071,2.01 ± 0.038,1.99 ± 0.072,0.871 ± 0.066
AUAUG,0.794 ± 0.14,1.99 ± 0.045,1.8 ± 0.087,0.981 ± 0.043
AUAUA,-0.278 ± 0.26,2.006 ± 0.015,1.75 ± 0.028,0.0109 ± 0.01
CGUCC,0.784 ± 0.02,2.01 ± 0.086,2 ± 0.044,0.87 ± 0.021
AAUUG,0.229 ± 0.1,2.02 ± 0.12,1.75 ± 0.15,0.292 ± 0.011
UGAUC,0.156 ± 0.012,1.88 ± 0.045,1.91 ± 0.099,0.331 ± 0.012
UGAUU,0.448 ± 0.028,1.96 ± 0.071,1.7 ± 0.12,0.437 ± 0.11
AUACU,0.617 ± 0.06,2.02 ± 0.038,1.79 ± 0.033,0.713 ± 0.032
GUACU,0.8686 ± 0.0017,2 ± 0.044,1.93 ± 0.08,0.97 ± 0.03
CAUAC,0.865 ± 0.024,1.917 ± 0.0021,1.8 ± 0.092,0.996 ± 0.019
CAUAA,-0.291 ± 0.12,1.88 ± 0.0023,1.06 ± 0.47,0.446 ± 0.011
UAAAU,0.912 ± 0.013,1.978 ± 0.0035,1.84 ± 0.13,0.9829 ± 0.0075
UAAAG,0.272 ± 0.033,2.041 ± 0.007,1.84 ± 0.11,0.497 ± 0.037

Variant,FACS-Seq fitted mean (log10) (theophylline [1]),normalized RNA/DNA level with ligand (log10) (theophylline [2]),normalized RNA/DNA level without ligand (log10) (theophylline [3]),FACS-Seq fitted mean (log10) (theophylline [4])
CGACA,0.409 ± 0.006,2.012 ± 0.02,1.45 ± 0.061,0.769 ± 0.0091
AGGUA,0.987 ± 0.032,1.979 ± 0.0062,1.66 ± 0.04,1.26 ± 0.14
ACUGG,1 ± 0.065,2.05 ± 0.12,1.91 ± 0.091,0.915 ± 0.066
CCAUA,0.864 ± 0.14,1.95 ± 0.036,1.5 ± 0.14,1.06 ± 0.12
CCAUU,0.558 ± 0.021,1.983 ± 0.0031,1.75 ± 0.049,0.688 ± 0.011
CCCCU,0.771 ± 0.094,2 ± 0.042,1.951 ± 0.01,0.807 ± 0.053
UACAG,1.02 ± 0.041,1.96 ± 0.051,1.908 ± 0.018,0.918 ± 0.052
AAAUA,0.6481 ± 0.0057,1.99 ± 0.038,1.62 ± 0.16,0.806 ± 0.062
AAGGU,0.228 ± 0.0068,1.94 ± 0.047,1.72 ± 0.044,0.445 ± 0.067
UCUUG,0.933 ± 0.1,1.94 ± 0.18,1.94 ± 0.037,1.01 ± 0.025
AGUAC,0.729 ± 0.04,1.997 ± 0.019,1.83 ± 0.068,0.749 ± 0.072
CGCGA,0.995 ± 0.15,1.97 ± 0.12,1.767 ± 0.014,0.923 ± 0.055
CGCGU,0.348 ± 0.12,1.91 ± 0.11,1.842 ± 0.0033,0.441 ± 0.23
UGAAC,1.07 ± 0.11,1.97 ± 0.06,1.84 ± 0.036,0.983 ± 0.022
GCAGA,0.899 ± 0.2,2.04 ± 0.03,1.66 ± 0.083,0.875 ± 0.14
UAGGA,0.042 ± 0.047,1.958 ± 0.0077,1.55 ± 0.063,0.302 ± 0.044
CAAGC,0.66 ± 0.031,1.96 ± 0.064,1.99 ± 0.079,0.543 ± 0.046
UUGUC,0.132 ± 0.031,1.99 ± 0.027,2.01 ± 0.063,0.305 ± 0.035
UUGUA,0.431 ± 0.12,1.88 ± 0.029,1.53 ± 0.21,0.555 ± 0.051
UCCUA,0.918 ± 0.078,2 ± 0.13,2.007 ± 0.0046,0.92 ± 0.058
AUUUC,1 ± 0.085,2.01 ± 0.07,1.97 ± 0.11,0.865 ± 0.018
UAAGA,-0.11 ± 0.071,1.9752 ± 0.00034,1.48 ± 0.16,0.22 ± 0.072
AAGAG,0.563 ± 0.11,1.97 ± 0.099,1.67 ± 0.089,0.728 ± 0.02
CGGCA,0.507 ± 0.017,1.96 ± 0.046,1.485 ± 0.0076,0.7564 ± 0.0075

Variant,FACS-Seq fitted mean (log10) (theophylline [1]),normalized RNA/DNA level with ligand (log10) (theophylline [2]),normalized RNA/DNA level without ligand (log10) (theophylline [3]),FACS-Seq fitted mean (log10) (theophylline [4])
ACGAA,0.287 ± 0.046,1.97 ± 0.098,1.51 ± 0.045,0.661 ± 0.025
CCGCC,1.17 ± 0.096,2.0217 ± 0.0019,1.96 ± 0.033,1.18 ± 0.036
UAUUC,0.679 ± 0.022,1.99 ± 0.089,1.94 ± 0.11,0.6994 ± 0.0049
UAUUG,0.752 ± 0.025,2.07 ± 0.029,1.921 ± 0.017,0.768 ± 0.032
CUGUC,0.555 ± 0.065,2.021 ± 0.014,1.99 ± 0.021,0.5114 ± 0.0041
CUGUU,-0.291 ± 0.011,1.93 ± 0.061,1.81 ± 0.07,-0.12 ± 0.062
UGCCG,1.06 ± 0.058,2.04 ± 0.043,2.02 ± 0.055,0.883 ± 0.027
AGCAA,0.327 ± 0.12,1.94 ± 0.035,1.46 ± 0.09,0.627 ± 0.067
CGAUA,0.099 ± 0.017,1.946 ± 0.014,1.21 ± 0.36,0.491 ± 0.0076
UGCAU,1.25 ± 0.16,1.92 ± 0.078,1.853 ± 0.018,1.3 ± 0.1
UGGUA,0.0996 ± 0.099,1.946 ± 0.011,1.28 ± 0.11,0.69 ± 0.042
CUUAU,0.864 ± 0.067,2.04 ± 0.071,1.907 ± 0.014,0.901 ± 0.013
UAACC,0.589 ± 0.058,1.92 ± 0.025,1.92 ± 0.04,0.702 ± 0.061
CUACU,0.761 ± 0.11,1.96 ± 0.087,1.8 ± 0.019,0.924 ± 0.034
UCGAU,0.605 ± 0.16,2.087 ± 0.0041,1.78 ± 0.12,0.815 ± 0.057
AUCGA,0.863 ± 0.17,2.02 ± 0.087,1.76 ± 0.19,0.825 ± 0.13
UUGAU,0.68 ± 0.041,2.06 ± 0.1,1.82 ± 0.044,0.708 ± 0.03
ACCUG,1.02 ± 0.063,2.01 ± 0.025,1.89 ± 0.043,0.898 ± 0.044
ACCUU,1.31 ± 0.14,2.04 ± 0.038,1.95 ± 0.047,1.27 ± 0.14
AUAAC,0.876 ± 0.022,2.05 ± 0.13,1.96 ± 0.15,0.881 ± 0.11
AUAAA,0.196 ± 0.0089,1.99 ± 0.037,1.4 ± 0.12,0.487 ± 0.033
UCCAG,0.956 ± 0.042,2.01 ± 0.07,1.92 ± 0.1,1.07 ± 0.13
AAUCA,0.1911 ± 0.00077,1.9026 ± 0.0018,1.7 ± 0.029,0.221 ± 0.08
GAUAU,0.781 ± 0.093,1.946 ± 0.0078,1.75 ± 0.039,0.8102 ± 0.0061

# Reference: the supplement of paper PMC6757056
